# From the Immune Epitope Database (IEDB)
# Experiments:
# Assay in all cases: IEDB peptide-MHC binding, purified MHC/direct/fluorescence; filed as Kd, often an IC50 or EC50 that approximates it; ≥ and ≤ were set here for values at or beyond the usual limits of such assays
# HLA-A*31:01 = conditions: source organism: Salmonella enterica
# HLA-A*69:01 = conditions: source organism: Salmonella enterica
# HLA-B*58:01 = conditions: source organism: Salmonella enterica
# HLA-B*27:05 = conditions: source organism: Salmonella enterica
# HLA-B*39:01 = conditions: source organism: Salmonella enterica subsp. enterica serovar Typhimurium str. LT2
# HLA-A*02:11 = conditions: source organism: Salmonella enterica subsp. enterica serovar Typhimurium str. LT2
# HLA-B*57:01 = conditions: source organism: Salmonella enterica
# HLA-B*48:01 = conditions: source organism: Salmonella enterica
# HLA-A*01:01 = conditions: source organism: Salmonella enterica
# HLA-B*46:01 = conditions: source organism: Salmonella enterica
sequence,measurement,setting,value
FPASHMATY,Kd,HLA-A*31:01,≥ 20 µM
same,Kd,HLA-A*69:01,≥ 20 µM
same,Kd,HLA-B*58:01,≥ 20 µM
same,Kd,HLA-B*27:05,≥ 20 µM
same,Kd,HLA-B*39:01,≥ 20 µM
same,Kd,HLA-A*02:11,≥ 20 µM
same,Kd,HLA-B*57:01,≥ 20 µM
same,Kd,HLA-B*48:01,≥ 20 µM
same,Kd,HLA-A*01:01,≥ 20 µM
same,Kd,HLA-B*46:01,9 µM
